Publication PMC5457438
Residue numbers refer to the chain shown, from its start.

Columns and labels:
[1] = tested on: T1, MaeR D54A D54A (Lacticaseibacillus (Lactobacillus) casei BL23), ORF:6e0afda8; assay: EMSA; conditions: EMSA: 15 ul of 2.5 mM Tris-HCl pH 7.5, 100 mM NaCl, 25 mM MgCl2, 0.25 mM EDTA, 0.25 mM DTT, 10% glycerol, 1.5 ug salmon sperm DNA, 100 ng DNA, 62-375 ng …
T1 sequence: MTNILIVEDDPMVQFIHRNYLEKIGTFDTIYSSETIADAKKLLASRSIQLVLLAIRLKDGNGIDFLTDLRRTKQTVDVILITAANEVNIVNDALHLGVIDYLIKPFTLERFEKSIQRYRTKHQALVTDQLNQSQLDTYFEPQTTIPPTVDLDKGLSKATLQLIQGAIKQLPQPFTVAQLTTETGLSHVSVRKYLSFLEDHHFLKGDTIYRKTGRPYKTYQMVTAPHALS

[2] = tested on: T2, MaeR full length (MaeRFL) (Lacticaseibacillus (Lactobacillus) casei BL23), ORF:6e0afda8; assay: EMSA; conditions: EMSA: 15 ul of 2.5 mM Tris-HCl pH 7.5, 100 mM NaCl, 25 mM MgCl2, 0.25 mM EDTA, 0.25 mM DTT, 10% glycerol, 1.5 ug salmon sperm DNA, 100 ng DNA, 62-375 ng …
T2 sequence: T1 sequence with A54D

[3] = tested on: T3, MaeR D54N D54N (Lacticaseibacillus (Lactobacillus) casei BL23), ORF:6e0afda8; assay: EMSA; conditions: EMSA: 15 ul of 2.5 mM Tris-HCl pH 7.5, 100 mM NaCl, 25 mM MgCl2, 0.25 mM EDTA, 0.25 mM DTT, 10% glycerol, 1.5 ug salmon sperm DNA, 100 ng DNA, 62-375 ng …
T3 sequence: T1 sequence with A54N

[4] = biological target: recombinant complete cytoplasmic portion of MaeK (MaeKC) (Lactobacillus casei); assay: SEC; gel filtration chromatography of MaeKC (Superdex200 16/60); single peak

Row | stoichiometry N [4] | Substance | binding [1] | binding [2] | binding [3]
1 |  | CGTTGATTTGTTGGGTGTAACCGTCTTGTTCTCCATGTTTCCTTACCCCCAATCTTTTGTTACTTACAGCATATTGTAAGCGCTTCATCAGGGGAAGATTATTTAACTTATTAAACCATAAACCCATTTATTTAAGCGATTGTTTTACTATTCACAAGATGGTTTCTCTACTGAACAGGAGTATGATCATGAAAATAAAAGGATGGCGGCTATGGGGCT (double strand) [mae promoter (maeP-maeK intergenic region, 219 bp)] | no binding | binds | binds
2 | 2 | recombinant complete cytoplasmic portion of MaeK (MaeKC) (domain or fragment) |  |  | 
